# Laboratory results published in article PMC8269243.
# Biological target: TYLCV coat protein (CP) in viruliferous whiteflies (tomato yellow leaf curl virus (TYLCV) isolate SH2)
substance,measurement,value
"Vitellogenin (Vg) of MEAM1 whitefly (Bta07851), endogenous (natural protein)","proportion of phase V midguts (TYLCV movement across the midgut, IFA) in Vg antibody-treated whiteflies after a 24-h AAP; control group 55%",30%
same,"reduction of the disease incidence rate of tomato plants in the Vg antibody treatment against the control, 15 days (27%) and 30 days (35%) posttransmission",35%
